From patent US20230365701A1 (Pfizer, published 2023)

Key:
human LTBR protein = target: T1, human LTBR protein (human, UniProt P36941 31-227, limits assumed); assay: not stated at this place (SPR by the heading before paragraph 293, where the value is repeated); human LTBR
T1 construct: Protein used for the KD, binning and crystallization; In the crystal the entire extracellular domain was ordered; also called lymphotoxin beta receptor; TNFR3

[1] = target: T2, human LTBR on cells (endogenous on HUVEC, HT29, primary human fibroblasts and moDC; LTBR-expressing HEK293) (human, UniProt P36941 31-435); assay: cell-based or functional assay
T2 sequence (P36941 31-435 limits assumed): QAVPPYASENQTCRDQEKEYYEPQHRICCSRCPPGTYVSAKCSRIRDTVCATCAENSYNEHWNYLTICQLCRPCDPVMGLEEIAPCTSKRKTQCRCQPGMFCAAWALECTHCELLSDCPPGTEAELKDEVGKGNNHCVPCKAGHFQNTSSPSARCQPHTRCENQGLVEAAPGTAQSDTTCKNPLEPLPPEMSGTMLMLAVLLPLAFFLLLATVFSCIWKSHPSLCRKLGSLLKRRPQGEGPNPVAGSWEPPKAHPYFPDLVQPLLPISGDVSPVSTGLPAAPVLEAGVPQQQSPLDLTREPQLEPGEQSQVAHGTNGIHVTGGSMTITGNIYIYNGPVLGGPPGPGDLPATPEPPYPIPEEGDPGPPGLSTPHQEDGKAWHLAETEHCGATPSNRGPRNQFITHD

[2] = target: cynomolgus monkey LTBR on primary cynomolgus monkey fibroblasts (cynomolgus monkey, UniProt P36941 1-435 (human entry)); assay: cell-based or functional assay
cynomolgus monkey LTBR on primary cynomolgus monkey fibroblasts, sequence (P36941 other isoform, or with tags, fused parts or gaps limits assumed): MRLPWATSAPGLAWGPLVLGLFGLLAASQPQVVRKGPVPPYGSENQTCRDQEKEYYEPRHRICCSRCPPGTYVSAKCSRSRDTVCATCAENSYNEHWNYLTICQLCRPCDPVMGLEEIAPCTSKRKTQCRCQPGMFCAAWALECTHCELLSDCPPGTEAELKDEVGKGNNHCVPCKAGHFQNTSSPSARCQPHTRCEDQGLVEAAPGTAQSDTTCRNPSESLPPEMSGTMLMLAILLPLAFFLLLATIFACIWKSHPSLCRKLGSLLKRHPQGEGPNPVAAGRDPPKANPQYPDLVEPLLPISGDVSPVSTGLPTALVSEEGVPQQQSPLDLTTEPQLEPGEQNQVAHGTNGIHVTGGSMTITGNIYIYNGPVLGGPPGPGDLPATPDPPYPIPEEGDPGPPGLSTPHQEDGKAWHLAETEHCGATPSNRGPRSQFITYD

[3] = target: chimeric LTBR with a human extracellular domain and mouse transmembrane and intracellular domains, on CT26 … (human; mouse); assay: cell-based or functional assay
chimeric LTBR with a human extracellular domain and mouse transmembrane and intracellular domains, on CT26 … (human; mouse), sequence (chain, as listed by the source mutant limits assumed): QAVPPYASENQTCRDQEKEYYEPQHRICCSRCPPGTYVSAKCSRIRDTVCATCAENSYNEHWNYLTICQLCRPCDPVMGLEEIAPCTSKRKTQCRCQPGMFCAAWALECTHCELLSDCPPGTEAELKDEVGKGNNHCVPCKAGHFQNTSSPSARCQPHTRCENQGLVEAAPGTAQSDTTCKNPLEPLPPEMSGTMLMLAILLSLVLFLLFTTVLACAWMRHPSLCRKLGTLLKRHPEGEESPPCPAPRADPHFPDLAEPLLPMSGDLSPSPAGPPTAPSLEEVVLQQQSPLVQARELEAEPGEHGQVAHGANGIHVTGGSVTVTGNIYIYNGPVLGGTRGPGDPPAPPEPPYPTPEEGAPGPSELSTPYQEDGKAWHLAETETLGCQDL

[4] = target: T2, human LTBR on cells (endogenous on …); assay: flow cytometry with AF647-labeled antibody on HUVEC (endogenous human LTBR), 1.5 hours on ice
Experimental: (§1) Endogenous human LTBR binding: 1E01 binding to endogenous LTBR on human endothelial cells (human umbilical vein endothelial cells (HUVEC)) and tumor cells (HT29 human colorectal carcinoma cells) was assessed in a flow cytometry-based assay using AF647-labeled antibody and Quantbrite™ beads. Cells were incubated with antibody for 1.5 hours on ice prior to endpoint analysis. Results confirmed the binding of 1E01 to endogenous human LTBR.

[5] = target: T2, human LTBR on cells (endogenous on …); assay: flow cytometry with AF647-labeled antibody on HT29 cells (endogenous human LTBR), 1.5 hours on ice
Experimental: as §1

T1 sequence (P36941 31-227 limits assumed): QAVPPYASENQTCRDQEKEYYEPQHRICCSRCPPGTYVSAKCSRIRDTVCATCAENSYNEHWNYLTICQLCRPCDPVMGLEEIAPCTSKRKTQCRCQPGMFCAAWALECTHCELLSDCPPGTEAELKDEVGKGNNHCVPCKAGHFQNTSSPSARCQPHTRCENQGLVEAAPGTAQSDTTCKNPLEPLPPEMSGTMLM

B1: anti-LTBR clone 1E01 (Fab clone "1E01") (Fab, V domains shown)
VH: QVQLVQSGAEVKKPGSSVKVSCKASGGTFSSYFWSWVRQAPGQGLEWMGRFYSGGSANYNPSLKERVTITADESTSTAYMELSSLRSEDTAVYYCARERRGYSGGFEIWGQGTLVTVSS
VL: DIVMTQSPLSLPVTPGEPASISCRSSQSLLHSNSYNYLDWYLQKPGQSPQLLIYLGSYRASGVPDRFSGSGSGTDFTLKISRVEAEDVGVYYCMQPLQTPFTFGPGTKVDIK
notes: Only VH and VL are tied to the clone; also called 1E01 antibody
- Kd (human LTBR protein): 115 nM

B2: 1E01 tetravalent antibody (antibody, human IgG1, kappa)
heavy: QVQLVQSGAEVKKPGSSVKVSCKASGGTFSSYFWSWVRQAPGQGLEWMGRFYSGGSANYNPSLKERVTITADESTSTAYMELSSLRSEDTAVYYCARERRGYSGGFEIWGQGTLVTVSSASTKGPSVFPLAPSSKSTSGGTAALGCLVKDYFPEPVTVSWNSGALTSGVHTFPAVLQSSGLYSLSSVVTVPSSSLGTQTYICNVNHKPSNTKVDKKVEPKSCGGGGSQVQLVQSGAEVKKPGSSVKVSCKASGGTFSSYFWSWVRQAPGQGLEWMGRFYSGGSANYNPSLKERVTITADESTSTAYMELSSLRSEDTAVYYCARERRGYSGGFEIWGQGTLVTVSSASTKGPSVFPLAPSSKSTSGGTAALGCLVKDYFPEPVTVSWNSGALTSGVHTFPAVLQSSGLYSLSSVVTVPSSSLGTQTYICNVNHKPSNTKVDKKVEPKSCDKTHTCPPCPAPEAAGAPSVFLFPPKPKDTLMISRTPEVTCVVVDVSHEDPEVKFNWYVDGVEVHNAKTKPREEQYNSTYRVVSVLTVLHQDWLNGKEYKCKVSNKALPAPIEKTISKAKGQPREPQVYTLPPSREEMTKNQVSLTCLVKGFYPSDIAVEWESNGQPENNYKTTPPVLDSDGSFFLYSKLTVDKSRWQQGNVFSCSVMHEALHNHYTQKSLSLSPGK
light: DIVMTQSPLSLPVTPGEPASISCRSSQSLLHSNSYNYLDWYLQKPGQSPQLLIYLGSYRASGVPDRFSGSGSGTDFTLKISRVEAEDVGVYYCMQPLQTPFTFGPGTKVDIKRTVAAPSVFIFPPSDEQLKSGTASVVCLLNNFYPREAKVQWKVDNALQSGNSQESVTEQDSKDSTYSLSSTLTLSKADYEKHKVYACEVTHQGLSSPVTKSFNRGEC
notes: Extended heavy chain VH-CH1-linker-VH-CH1-hinge-CH2-CH3; AF647-labeled in the flow cytometry assay; also called tetravalent 1E01
- CXCL10 Release, EC50 (ug/mL), primary human dermal fibroblasts [1]: 0.00231 µg/mL
- CXCL10 Release, EC50 (ug/mL), primary cyno fibroblasts [2]: 0.00902 µg/mL
- NFkB Activation, EC50 (ug/mL), CT26 hEC-mTM-mIC NFkB luciferase reporter cells [3]: 0.00173 µg/mL
- EC50 [4]: 76 ng/mL
- EC50 [5]: 73 ng/mL
